1 molecule from EP4635983A1 (Ymmunobio AG, dated 2025) can be followed below.

Where no end group is shown, it is not given here.

Assay [1] deals with T1, recombinant human NPTXR (rhNPTXR; Ala24 to Ala500 of Acc no. #O95502) (human, UniProt O95502 24-500).
T1 construct: range 24-500; Recombinant protein immobilized on the ELISA plate
T1 sequence (looked up): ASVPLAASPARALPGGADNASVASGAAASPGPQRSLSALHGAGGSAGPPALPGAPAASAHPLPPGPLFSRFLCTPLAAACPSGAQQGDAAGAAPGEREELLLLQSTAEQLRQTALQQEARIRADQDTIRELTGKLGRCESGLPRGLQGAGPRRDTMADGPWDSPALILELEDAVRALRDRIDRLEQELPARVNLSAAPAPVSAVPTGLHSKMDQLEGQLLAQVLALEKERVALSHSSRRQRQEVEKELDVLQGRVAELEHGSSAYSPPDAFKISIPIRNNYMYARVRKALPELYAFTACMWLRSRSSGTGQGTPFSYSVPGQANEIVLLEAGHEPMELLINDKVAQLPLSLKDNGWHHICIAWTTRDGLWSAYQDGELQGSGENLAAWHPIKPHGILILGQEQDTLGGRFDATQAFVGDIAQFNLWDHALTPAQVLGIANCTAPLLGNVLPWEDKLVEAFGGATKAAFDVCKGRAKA
The assay can be described thus: ELISA, rhNPTXR immobilized on plate, antibody titrated from 10 ug/ml, anti-human IgG Fc-HRP detection.

For assay [2], the target named is T2, peptide (mNPTXR) representing the mouse NPTXR epitope space (mouse, also: biotinylated, position not given here).
T2 construct: Immobilized on the ELISA plate by streptavidin capture; also called Bio-mNPTXR; Strep + Bio-mNPTXR
T2 peptide: CESGLPRGLQDAGPRRDT
The experiment in a line: ELISA, biotinylated mNPTXR peptide captured by streptavidin, antibody titrated from 10 ug/ml, anti-human IgG Fc-HRP detection.

B1: YB-800 (antibody, human IgG1, V domains shown)
VH: QVQLVQSGAEVKKPGASVKVSCKASGYTFTNYGMNWVRQAPGQRLEWMGWINTDIGEPTYSQKFQGRVTITRDTSASTAYMELSSLRSEDTAVYYCAREMDVWGQGTTVTVSS
VL: DIQMTQSPSSLSASVGDRVTITCRASQSISDYLHWYQQKPGKAPKLLIKYVSHSISGVPSRFSGSGSGTDFTLTISSLQPEDFATYYCLNGHSFPFTFGGGTKVEIK
For the molecule B1, the values for the EC50 in assay [1] and in assay [2] were 0.0271 µg/mL and 0.0309 µg/mL, respectively.
